Source: patent US20190389905A1 (OREGON STATE UNIVERSITY, published 2019)
The star is where a group is joined. Biotin = O=C1N[C@H]2[C@H](CS[C@H]2CCCCC(=O)*)N1; Ahx = NCCCCCC(=O)O

What was measured:
[1] = molecular target: AniA expressed by intact N. gonorrhoeae FA1090 ΔaniA/Plac::aniA cells (Neisseria gonorrhoeae FA1090), Q02219; experiment: cell-based or functional assay
[2] = molecular target: T1, sAniA, recombinant AniA (NGO1276) of Neisseria gonorrhoeae FA1090 lacking the N-terminal palmitoylation … (Neisseria gonorrhoeae FA1090, UniProt Q02219 19-392); experiment: cell-based or functional assay
T1 sequence: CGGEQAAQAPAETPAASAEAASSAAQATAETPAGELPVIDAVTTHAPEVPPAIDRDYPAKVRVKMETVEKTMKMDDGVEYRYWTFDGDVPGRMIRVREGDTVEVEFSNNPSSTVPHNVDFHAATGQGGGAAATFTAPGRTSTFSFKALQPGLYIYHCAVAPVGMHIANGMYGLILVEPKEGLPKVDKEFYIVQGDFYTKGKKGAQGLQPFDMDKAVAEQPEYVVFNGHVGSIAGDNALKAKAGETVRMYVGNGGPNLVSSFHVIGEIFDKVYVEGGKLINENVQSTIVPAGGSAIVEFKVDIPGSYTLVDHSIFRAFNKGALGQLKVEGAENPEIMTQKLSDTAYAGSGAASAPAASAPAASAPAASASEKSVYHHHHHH

[3] = molecular target: T1, sAniA, recombinant AniA (NGO1276) of …; experiment: phage ELISA on sAniA-coated wells; reference is phage-displayed 12-5
Protocol: Individual wells in 96-well transparent plates (Greiner-Bio) were coated with 100 μL of 100 pg/mL of sAniA suspended in 0.1 M NaHCO₃pH 8.6 and incubated overnight at 4° C. in an airtight humidified box. After incubation, excess target solution was shaken out and wells were filled with 300 μL of blocking buffer (0.1 M NaHCO₃pH 8.6, 5 mg/mL BSA). Following 2 h incubation at 4° C., blocking buffer was removed and wells were washed six times with 200 μL of TBST (50 mM Tris-HCl pH 8.6, 150 mM NaCl, 0.5% Tween). Isolated individual phage amplifications (10¹⁰ PFU) in 100 μl of TBST were incubated at room temperature for 1 h with rocking. All wells were then cleared by shaking and washed six times with 200 μL of TBST. A solution containing Anti-M13 HRP linked-Monoclonal Antibodies (NEB) (1:5,000 dilution in blocking buffer) was distributed at 200 μL per well and incubated with rocking at room temperature for 1 h. Wells were washed six times with TBST and incubated with Turbo TMB-ELISA for 30 min with rocking at room temperature. […] Data from seven independent experiments are shown with mean and SEM

[4] = molecular target: T1, sAniA, recombinant AniA (NGO1276) of …; experiment: biolayer interferometry (OctetRed 96): C7-3Bio on streptavidin sensors, sAniA 50-1000 nM in solution, 2:1 heterogeneous ligand model, average ± SEM of three experiments
Protocol: Streptavidin (SA) biosensors (ForteBio) were loaded with C7-3Bio peptides for 10 min. Unloaded tips were used as a control. The sAniA samples were prepared in Kinetic Buffer in concentrations of 50, 100, 500, and 1000 nM. The baseline was established for 240 s and the association and dissociation steps were performed for 500 s. Experiments were performed in three biological replicates with the curve fitting using 2:1 (Heterogeneous Ligand) model and KD value calculations were completed using Octet Data Analysis (version 9).
The BLI experiments were performed using steady state method and curve fitting of the association and dissociation responses.

H-ACNYCRLNLWGGGS-NH2 (cysteine pairing not given here) [synthetic peptide C7-3 (H-…-NH2)]
percent inhibition of nitrite reductase activity of intact N. gonorrhoeae cells at 0.6 mM peptide [1]: 50%

H-ACNYSRLNLWGGGS-NH2 [synthetic peptide C7-3m1 (H-ACNYSRLNLWGGGS-NH2)]
IC50 of inhibition of nitrite reductase activity of sAniA (DAN assay) [2]: 5.91 µM

B1: phage-displayed peptide C7-3 (CNYCRLNLW), M13 phage clone from the Ph.D.-C7C library (peptide, not shown: large carriers)
peptide: CNYCRLNLW
notes: Tested as whole phage (10^10 PFU per well) in the phage ELISA; Trp stands where the library's second Cys would be; also called phage-expressed C7-3
fold lower relative binding in comparison to 12-5 [3]: ~2 fold

H-ACSYCRLNLWGGGS-NH2 (cysteine pairing not given here) [synthetic peptide C7-3m2 (H-…-NH2)]
percent inhibition of nitrite reductase activity of intact N. gonorrhoeae cells at 0.3 mM peptide [1]: 50% | percent inhibition of nitrite reductase activity of intact N. gonorrhoeae cells at 0.6 mM peptide [1]: 90%

H-ACNFCRLNLWGGGS-NH2 (cysteine pairing not given here) [synthetic peptide C7-3P (H-ACNFCRLNLWGGGS-NH2)]
IC50 of inhibition of nitrite reductase activity of sAniA (DAN assay) [2]: > 105 µM

H-ACNYCRLNLWGGGS-NH2 (cysteine pairing not given here) [synthetic peptide C7-3 (H-ACNYCRLNLWGGGS-NH2)]
IC50 of inhibition of nitrite reductase activity of sAniA (DAN assay) [2]: 10.2 µM

H-ACSYCRLNLWGGGS-NH2 (cysteine pairing not given here) [synthetic peptide C7-3m2 (H-ACSYCRLNLWGGGS-NH2)]
IC50 of inhibition of nitrite reductase activity of sAniA (DAN assay) [2]: 4.81 µM

B2: C7-3Bio, C7-3 biotinylated at the N-terminus (BiotinAhx-ACNYCRLNLWGGGS-NH2) (peptide)
peptide: {Biotin-Ahx}-ACNYCRLNLWGGGS-NH2
modifications: cysteine pairing not given here
notes: Immobilized on streptavidin biosensors in the BLI experiment; also called biotinylated C7-3
IC50 of inhibition of nitrite reductase activity of AniA (DAN assay) [2]: 13.5 µM | Kd [4]: 775 nM

H-ACNACRLNLWGGGS-NH2 (cysteine pairing not given here) [synthetic peptide C7-3A (H-ACNACRLNLWGGGS-NH2)]
IC50 of inhibition of nitrite reductase activity of sAniA (DAN assay) [2]: ~25.2 µM
